Results as given in patent US20210130491A1 (ONCOTAG DIAGNOSTICS, published 2021).

How the values were obtained:
Test in all cases: ELISA, protein coated at 1 ug/ml
His-CRS = biological target: T1, His-CRS (UniProt P49589 1-748)
T1 construct: not shown: His tag
T1 sequence (looked up): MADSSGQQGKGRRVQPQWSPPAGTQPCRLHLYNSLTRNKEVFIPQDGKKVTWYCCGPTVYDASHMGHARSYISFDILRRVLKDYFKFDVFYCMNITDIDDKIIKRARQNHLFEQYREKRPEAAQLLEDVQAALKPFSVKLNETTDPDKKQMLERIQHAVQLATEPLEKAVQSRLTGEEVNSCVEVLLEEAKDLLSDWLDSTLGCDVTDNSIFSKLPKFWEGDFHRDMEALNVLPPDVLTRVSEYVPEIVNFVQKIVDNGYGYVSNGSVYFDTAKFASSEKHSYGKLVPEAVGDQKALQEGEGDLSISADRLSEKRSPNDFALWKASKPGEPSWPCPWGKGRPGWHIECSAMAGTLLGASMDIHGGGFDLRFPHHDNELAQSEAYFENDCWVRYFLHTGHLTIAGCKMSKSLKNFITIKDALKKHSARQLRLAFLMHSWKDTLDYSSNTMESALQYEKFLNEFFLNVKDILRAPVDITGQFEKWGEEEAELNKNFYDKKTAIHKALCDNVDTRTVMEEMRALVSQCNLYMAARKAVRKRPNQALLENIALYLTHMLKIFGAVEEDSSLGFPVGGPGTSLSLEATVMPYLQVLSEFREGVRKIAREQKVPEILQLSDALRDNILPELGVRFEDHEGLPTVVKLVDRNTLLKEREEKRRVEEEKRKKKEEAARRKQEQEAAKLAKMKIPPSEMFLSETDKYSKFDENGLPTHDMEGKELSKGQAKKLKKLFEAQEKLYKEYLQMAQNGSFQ
Method: (§1) Each well of 96 well plates (Corning 3690 flat bottom, 96-well half-area plates) was coated with different kinds of ARS proteins (His-MRS, MRS full, DX2 tag free, 34S-DX2, 34S-AIMP2, His-CRS, His-AIMP1, His-GRS, His-WRS, His-KRS) at the concentration of 1 μg/ml. 1E8 and 8A12 antibodies at a concentration of 500 ng/ml were added onto the 96 well plates coated with ARS proteins and allowed to react for 1 hour. Thereafter, HRP-conjugated anti-mouse IgG secondary antibody was added and reacted for 1 hour. ELISA was performed and absorbance was measured at 450 nm. TMB (3,3′,5,5′-tetramethylbenzidine) was used as substrate.

His-AIMP1 = biological target: T2, His-AIMP1 (UniProt Q12904 1-312, limits assumed)
T2 construct: not shown: His tag
T2 sequence (looked up): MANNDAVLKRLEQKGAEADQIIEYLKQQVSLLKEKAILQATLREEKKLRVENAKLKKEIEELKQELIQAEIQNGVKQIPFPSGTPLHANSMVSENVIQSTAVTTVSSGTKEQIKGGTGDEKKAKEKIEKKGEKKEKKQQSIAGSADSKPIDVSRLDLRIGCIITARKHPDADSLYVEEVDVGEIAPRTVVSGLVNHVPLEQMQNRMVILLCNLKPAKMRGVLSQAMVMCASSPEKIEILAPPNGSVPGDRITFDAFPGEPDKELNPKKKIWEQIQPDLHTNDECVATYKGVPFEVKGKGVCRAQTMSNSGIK
Method: as §1

His-GRS = biological target: T3, His-GRS (UniProt P41250 55-739)
T3 construct: not shown: His tag
T3 sequence (looked up): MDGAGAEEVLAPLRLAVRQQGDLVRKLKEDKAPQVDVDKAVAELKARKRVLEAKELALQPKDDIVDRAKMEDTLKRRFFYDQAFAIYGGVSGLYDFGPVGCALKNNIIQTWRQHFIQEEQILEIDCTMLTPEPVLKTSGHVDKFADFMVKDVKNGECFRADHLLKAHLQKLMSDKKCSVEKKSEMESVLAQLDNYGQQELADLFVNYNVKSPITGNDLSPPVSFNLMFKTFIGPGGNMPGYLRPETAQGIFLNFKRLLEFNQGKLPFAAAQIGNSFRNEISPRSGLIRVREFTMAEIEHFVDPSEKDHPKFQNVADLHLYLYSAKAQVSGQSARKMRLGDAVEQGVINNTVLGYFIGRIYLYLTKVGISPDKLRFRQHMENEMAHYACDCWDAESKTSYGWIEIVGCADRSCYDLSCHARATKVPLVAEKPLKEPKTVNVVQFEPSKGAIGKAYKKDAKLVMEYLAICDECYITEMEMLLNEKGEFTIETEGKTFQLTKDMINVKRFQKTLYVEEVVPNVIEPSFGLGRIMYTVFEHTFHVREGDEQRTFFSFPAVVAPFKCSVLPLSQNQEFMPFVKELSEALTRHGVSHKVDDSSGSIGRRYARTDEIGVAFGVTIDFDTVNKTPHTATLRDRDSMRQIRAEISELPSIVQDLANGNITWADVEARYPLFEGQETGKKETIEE
Method: as §1

His-WRS = biological target: T4, His-WRS (UniProt P23381 1-471, limits assumed)
T4 construct: not shown: His tag
T4 sequence (looked up): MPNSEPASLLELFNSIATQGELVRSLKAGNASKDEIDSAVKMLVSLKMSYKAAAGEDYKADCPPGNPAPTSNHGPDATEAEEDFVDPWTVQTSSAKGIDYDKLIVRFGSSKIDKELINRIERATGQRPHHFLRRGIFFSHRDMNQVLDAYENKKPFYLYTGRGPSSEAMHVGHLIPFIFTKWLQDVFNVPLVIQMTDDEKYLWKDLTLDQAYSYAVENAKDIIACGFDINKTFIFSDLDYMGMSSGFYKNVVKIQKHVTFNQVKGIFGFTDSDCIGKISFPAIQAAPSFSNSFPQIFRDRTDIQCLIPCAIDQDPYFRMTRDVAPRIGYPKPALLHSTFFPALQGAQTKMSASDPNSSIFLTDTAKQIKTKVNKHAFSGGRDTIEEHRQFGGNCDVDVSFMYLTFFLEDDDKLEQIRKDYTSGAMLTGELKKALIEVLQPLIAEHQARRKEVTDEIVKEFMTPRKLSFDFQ
Method: as §1

His-KRS = biological target: T5, His-KRS (UniProt Q15046 1-597)
T5 construct: not shown: His tag
Method: as §1

34S-AIMP2 = biological target: T6, 34S-AIMP2 (UniProt Q13155 1-320)
T6 construct: not shown: '34S' tag or fusion partner
T6 sequence (looked up): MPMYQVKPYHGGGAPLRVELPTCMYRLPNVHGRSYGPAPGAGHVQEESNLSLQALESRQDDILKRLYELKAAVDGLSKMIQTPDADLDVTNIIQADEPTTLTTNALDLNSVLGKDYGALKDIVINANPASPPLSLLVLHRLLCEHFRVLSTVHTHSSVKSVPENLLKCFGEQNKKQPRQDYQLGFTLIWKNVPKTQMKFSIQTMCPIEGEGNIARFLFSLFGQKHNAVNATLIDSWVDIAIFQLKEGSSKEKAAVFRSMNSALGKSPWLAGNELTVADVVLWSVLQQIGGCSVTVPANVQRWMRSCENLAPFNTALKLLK
Method: as §1

Measured: binding result

T5 sequence (Q15046 whole entry): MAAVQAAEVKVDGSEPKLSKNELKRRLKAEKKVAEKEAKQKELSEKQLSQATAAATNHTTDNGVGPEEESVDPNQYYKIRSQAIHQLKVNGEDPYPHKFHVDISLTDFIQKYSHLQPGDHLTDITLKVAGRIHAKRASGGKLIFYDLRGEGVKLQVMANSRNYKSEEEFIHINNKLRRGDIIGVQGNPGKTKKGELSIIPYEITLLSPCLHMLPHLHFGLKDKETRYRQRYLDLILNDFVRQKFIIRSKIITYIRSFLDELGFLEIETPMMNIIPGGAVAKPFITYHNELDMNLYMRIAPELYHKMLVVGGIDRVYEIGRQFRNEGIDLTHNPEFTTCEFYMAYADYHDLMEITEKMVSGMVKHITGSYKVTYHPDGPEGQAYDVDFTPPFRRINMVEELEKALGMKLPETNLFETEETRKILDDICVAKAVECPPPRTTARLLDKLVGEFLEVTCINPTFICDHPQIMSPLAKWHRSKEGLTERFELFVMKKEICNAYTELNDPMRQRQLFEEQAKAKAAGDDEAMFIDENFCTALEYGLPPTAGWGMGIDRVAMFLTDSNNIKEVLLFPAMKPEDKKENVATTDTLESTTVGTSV

B1: 1E8 antibody (1E8 IgG) (antibody, V domains shown)
VH: DVKLQESGPGLVNPSQSLSLTCTVTGYSITSDYAWNWIRQFPGNKLEWMGYISYSGRTSYKSSLKSRISITRDTSKNQFFLELNSVTTEDTATYYCARDYGNFVGYFDVWGAGTTVTVSS
VL: DIVMTQSPSSLAVSVGEKVTMSCKSSQSLLYSSNQKNYLAWYQQKPGQSPKLLIYWASTRESGVPDRFTGSGSGTEFTLTISSVKAEDLAVYYCQQYYSYPTFGGGTKLEIKA
notes: Mouse monoclonal from hybridoma clone 1E8; also called IE8; anti-MRS antibody (1E8)
no binding (tested: 500 ng/ml): all assays above

B2: 8A12 antibody (8A12 IgG) (antibody, V domains shown)
VH: DVKLQESGPGLVKPSQSLSLTCTVTGYSITSEYAWTWIRQFPGNKLEWMGYINYNGNTNLNPSLKSRISIIRDTSKNQFFLQLNSVTTEDTATYYCARSLWPRGWFAYWGQGTLVTVSA
VL: DIQMTQSPSSMYASLGERVTITCKASQDINSYLSWFQQKPGKSPKTLMYRANRLVDGVPSRFSGSGSGQDYSLTISSLEYEDMGIYYCLQYDEFPRTFGGGTKLEIKA
notes: Mouse monoclonal from hybridoma clone 8A12; also called 8Al2; anti-MRS antibody (8A12)
no binding (tested: 500 ng/ml): all assays above
